Experiment: yeast display, Sf9 membrane polyspecificity reagent, FACS + sequencing; frameworks hold sequencing errors
In short: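 A synthetic nanobody library was expressed on Saccharomyces cerevisiae BJ5465 by galactose induction for 36–48 hours. The library was stained for 1 hour at 4 °C with 10% biotinylated, detergent-solubilized Sf9 membrane reagent and enriched with streptavidin microbeads before FACS. Low and high (top ~1%) gates were set on anti-HA fluorescence for expression and streptavidin fluorescence for reagent binding, and each polyreactivity label reflects the gate of origin.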

Sequence	polyreactivity (PSR sort gate)
QVQLVESGGALVQAGGSLRLSCAASGSTLVTNAMGWYRKAPGKERELVAAITFSGGTTYYADSVKGRFTISRDNAKNTVYLQMNSLTPEDTAVYYCGAEIWLEYVGYDYWGQGTQVTVSS	high polyreactivity
QVQLVESGGGLVQAGGSLRLSCAASGITFDSYAMGWYRQAPGKERELVAAISYSGGSTYYADSVKGRFTISRDNAKNTVYLQMNSLKPEDTAVYYCAAASDDDYDYWGQGTQVTVSS	low polyreactivity
QVQLVESGGGLVQAGGSLRLSCAASGSTFYVYAMGWYRQAPGKVREFVATISTSGAITYYADSVKGRFTISRDNAKNTVYLQMNSQKPEDTAVYYCARSGSLLSQVWYNYWGQGTQVTVTS	low polyreactivity
QVQLVESGGGLVQAGGSLRLSCAASGGTFTYYAKGWYRQAPGKERELVAAISWSDTSTYYADSVKGRFTISRDNAKNTVYLQMNSLKPEDTAVYYCAAEFYVRYQADYEYWGQGTQVTVSS	high polyreactivity
QVQLVESGGGLVQAGGSLRLSCAASGFIFSYYAMGWYRQAPGKERELVAAISGRGGSTYYADSVKGRFTISRDNAKNTVYLQMNSLQPEDTAVYYCAADSPWGGGYFVLYNYWGQGTQVTVSS	low polyreactivity
QVQLVESGGGLVQAGGSLRLSCAASGFTFYYYAMGWYRQAPGKERELVAAISDSGGITSYADSVKGRFTISRDNAKNTVYLQMNSLKPEDTAVYYCAAEWSQWPYDYWGQGTQVTVSS	low polyreactivity
QVQLVESGGGLVQAGGSLRLSCAASGSIFPVYAMGWYRQAPGKERELVASISTGGSTYYADSVKGRFTISRDNAKNTVYLQMNSLKPEDTAVYYCSATGWAYGYGYGYWGQGTQVTVSS	low polyreactivity
QVQLVESGGVLVQAGGSLPLSCAASGRILARNAMGWYRQAPGNERELVAAITSSTDSTYYADSVKGRFTISRDNAKNTVYLQMNSLKPEDTAVYYCATVVRLYRGRYSYDYWGQGTQVTVSS	high polyreactivity
QVQLVESGGGLVQAGGSLRLSCAASGSIFAPDVMGWYRQAPGKERELVAAITESGGRTYYAASVKGRFTISRDNAKNTVYLQMNSLKPVDTAVYSCAARTFDRNRQLRRQWYDYWGLGTQVTVSS	high polyreactivity
QVQLVESGGGLVQAGGSLRLSCAASGLIFYFNGMGLYRQAPGKERELVASISASGDRTYYADSVKGRFTISRDNAKNTVYLQMNSLKQEDTAVYYCATDANTYTKYDYWGQGTQVSVSS	low polyreactivity
QVQLVESGGGLVQAGGSLRLCCAASGSTFTLYAMGWYSQAPGKVRELVAAISWSTTSTYYAHSVKGRFTISRDNAKNTVSLQMNSLKPEDTAVYYCAAELYRAEYDYWGQGTQVTVSS	high polyreactivity
QVQLVESGGGLVQAGGSLRLSCAASGITFAYYAKAWYRQAPGKERELVAAINWSGGSTYYADSVKGRFTISRDNAKNTVYLQMNSLKPEDTAVYYCNAVPRRGYSRRDYWGQGTQVTVSS	high polyreactivity
QVQLVESGGGLVQAGGSLRLSCAASGFTFHSYAMGWYRQAPGKERELVAAISYSGGSTYYADSVKGRFTISRDNAKNTVYLQMHSLKPEDTAVYYCAGLRYIYGYANDYWGQGTQVTVSS	low polyreactivity
QVHLVESGGGLVQAGGSLRLSCAASGFNLLPYALGWYRQAQGKERELVATINSGDSTYADSVKGRFTISRDNAKNTVYLQMNSLKPEDTAVYYCNAYWLVVPVDLDYWGQGTQVTVSS	low polyreactivity
QVQLVESGGGLVQAGGSLSLSCAASGRIFYYNAMGWYRQAPGKERELVAAITRGGSTYYADSVKGRFTISRDNAKNTVYLQMNSLKPEDTAVYYCAADRTGYSRYTTSVKGQRYYYWGQGTQVTVSS	high polyreactivity
QDQLVESGGGLVQAGGSLRLSCAASGSTFQYYTMGWYRQAPGKERELVAAISGDGGNTYYADSVKGRFTISRDNAKNTVYLQMNRLKPEDTAVYYCNADGLILYDYWGQGTQVTVSW	low polyreactivity
QVQLVESAGGLVQAGGSLRLICAASGGTFVGYAMGWYRQAPGKERELVAAISRRGGSTYYADSVKGRFTISRDNAKNTVYLQMNSLKPEDTAVYYCAKSEHRSVPQYDYWGQGTQVTVSS	high polyreactivity
QVQLVESGGGLVQAGGSLRFSCAASGRTFYGYAMGWYRQAPGKERELVAAITRSGGSTYYADSVKGRFTISRDNAKNTVYLQMNSLKPEDTAVYYCAAGGQARHDYWGQGTQVTVSS	low polyreactivity
QVQLVESGGGLVQAGGSLRLSCAASGSIFGIYAMGWYRQAPGKERELVAAISRGGSTYYADSVKGRFTISRDNAKNTVYLQMNSLKPEDTAVYYCNAKLIVTPGRGDYWGQGTQVTVSS	high polyreactivity
QVQLVESGGGLVQAGGSLRLSCAASGRTFLLNAMGWYRQAPGKERELVATITYSGGITYYADSVKGRFTISRDNAKNTVYLQMNSLKPEDTAVYYCSTSGPQYYSRNFDYWGQGTQVTVSS	low polyreactivity
QVQLVESGGGLVQAGGSLRLSCASSGSNFGYNAMGWYRQAPGKERELVAAILSSDSRTHYADSVKGRFTISRDNAKNTVYFQRNSLKPEDTAVYYCAAVKRRPGHYLYDYWGQGTQVSVSS	low polyreactivity
QVQLVESGGGIVQAGGSLRLSCAASGIIFPVYAMGWYRQAPGKERELVAAISRSGGSTYYADSVKGRFTISRDNAKNNVYLQMNSLKPEDTAVYYCAARYVVGYSLSSYGYWGQGTQVTVSS	high polyreactivity

Sequence	polyreactivity (PSR sort gate)
QVHLVESGGGLVQAGGSLRLSCAASGSTFYLYAMGWYRQATGKERELDASISRSGITTYSDSVKGRFTITRDNAKNNVYLQLNSRNPEDTADYYCAVRYYSASYWYGYDYWGLGTQVTVSS	high polyreactivity
QVQLVESGGGLVQAGGSLRLSCAASGITFGYYDMGWYRQAPGKERELVAAISRGGGRTYYADSVKGRFTISRDNAKNTVYLQMNSLKPEDSAVYYCAAPSRYGGRGRPTLYDYWGQGTQVTVSS	high polyreactivity
QVQLVESGGGLVQAGGSLRLSCAASGITFRRNAMGWYRQAPGKERELVAAITSRGGSTYYADSVKGRFTISRDNAKNTVYLQMNSMKPEDTAVYYCNAGGVDRVDRDYWGQGTQVTVSS	high polyreactivity
QVQLVESGGGLVQAGGSLRLSCAAYGSTLTRNAMGWYRQAPGKERELVATITATGGSTYYADSVKGRFTISRDNAKNTVYLQMTSLKPEDTAVYYCNKVYREYSLSYWSPTHWAYYYWGQGTQVTVSS	low polyreactivity
QVQLVESGGGLVQAGGSLRLSCAASGRTFLYNAMGWYRQAPGKERELVAAISGRGGRTYYADSVKGRFTISRDNAKNTVYLQMNSLKPEDTAVYYCAASQYYRWVIGYDFEYDYWGQGTQVTVSS	high polyreactivity
HVQRVDSGAGLVQPRCSLRISCAASGNTFKQYAMGWYRQAPGKDRELVAAIRRSGSTYYADSVKGRFTISRDNAKYTVYLEMNSLKPEDPAVYYCNARIYRLYSTYSWTRYDYWGQGTQVTVSS	high polyreactivity
QVQLVESGGGLVQAGGSLRLSCAASGSIFTRNTMGWYRQAPGKERELVAAITSSGGSTYYADSVKGRFTISRDTAKNTVYLQMNSLKPEDTAVYYCAADVGVYYYSFYYWGQGTQVTVSS	high polyreactivity
QVQLVESGGGLVQAGGSLRLSRAASGSTFSGYTMGWYRQAPGKERELVAAISTSGGRTSYADSVKGRFTISRDNAKTSVYLQMNSLKPEDTAVYYCAARRWERRVRPGYYPYDYWGQGTQVTVSS	high polyreactivity
QVQLQESGGGLVQAGGSLRLSCAASGYISHADEMGWYRQAPGKEHELVASISNGGSTNYADSVKGRFTISRDNANNTVYLQMNSLKSEVTAVYYCAAWTGQVDIHYYWGQGTQVTVSS	low polyreactivity
QVQLVESGGGLVQAGGSLRLSCAASGFIFGVYAMGWYRQAPGKERELVAAITGRAASTYYADSVKGRFTISRDNAKNTVYLQMNSLKPEDTAVYYCAARKRYRPGERYEYWGQGTQVTVSS	high polyreactivity
QVQLVESGGGLVQAGGSLRLSCAASGSTFGLYGMGWYRQAPGKERELVAAITYSGGGTYYADSVKGRFTISRDNAKNTVYLQMNSLKPEDTAVYYCAAEYYSSITGWYYYWGQGTLVTVSS	low polyreactivity
QVQLVESGGGLVKAGGSLRLSCAASGSTFRYYVMGWYRQAPGNERELVAAISRGGRTYYADSVKGRFTISRDNAKYSVYLQMNSLKPEDTAVYYCAVDYIVQSGSRIAGDYWGQGTQVTVSS	high polyreactivity
QVQLVESGGGLVQAGGSLRLSCAASGRIFENDMGWYRQAPGKERELVATIRSDGSTNYADSVKGRFTISRDNAKNTVYLQMNSLKPEDTAVYYCAADYLGPDYFFFSNYPYDYWGQGTQVTVSS	low polyreactivity
QVQLVESGGGLVQAGGSLRLSCAASGSIFKTYAMGWYRQAPGKERELVAAITSGVSTNYADSVKGRFTISRDNAKNTVYLQMNSLKPEDTAVYYCNVDTSSPSRRDYDYWGQGTQVTVSS	low polyreactivity
QVQLVESGGGLVQAGRSLRLSCAASGFTFQSYDMGWYRQAPGKDRELVAAISWSGASTYYADSVKGRFTISRDNAKNTVYLQMNSLKPEDTAVYYCAAGEPTWWGYANDYWGQGTQVTVST	high polyreactivity
LVQLVESGGGLVQAGGSLRLSCAASGSTFSVNALGWYRQAPGNERELVAAITYSGGSTYYADSVKGRFTISRDTAKNTVYLQMNSLKPEDTAVYYCATRVWFYKSRGGYRERDYWGQGTQVTVSS	high polyreactivity
QVQLVESGGGLVQAGGSLRLSCAASGSTFYYYAMGWYRQAPGKERELVAAISVSGASKYYADSVKGRFTISRDNAKNTVYLQMNSLKPEDTAVYYCAADEGYPGDGDYWGQGTQVTVSS	low polyreactivity
QVQLVESGGGLVQARGSLRLSCAASALTFRIYDMGWYRQAPGKERELVAAITRGGSTYADSVKGRFTISRDNAKNTVYLQMNSLKPEDTAVYYCAARVRSTSQVSASPVWYYYWGQGTQVTVSS	high polyreactivity
QVQHVESGGGLVKAGGSLRLSCAASGFTFGVYAMGWYRLAPGKERELVAAISRRGTSTYYADSVKGRFTISRDNAKNTVYLQMNSLKPEDTAVYYCNARRYQVTVDHWGQGTQVTVSS	high polyreactivity
QVQLVESGGGLVQAGGSLRLSCAASGSTSRYAMGWYRQAPGKERELVAAITRSGGTTYYADSVKGRFTISRDNAKNTVYLQMNSLKPEDTAVYYCATSDRQVKYDYWGQGTQVTVSS	low polyreactivity
QVQLVESGGGLVQAGGSLRLSCAASGSTFTPNAMGWYRQAPGKERELVAAIRYTGVGTYYADSVKGRFTISRDNAKNTVYLQMNSLKPEDTAVYYCNRVSRYYNYDYWGQGTQVTVSS	high polyreactivity
